Our source for the Km values is publication PMC2701922.

Substrate in data set [1]: NC(=O)c1ccc[n+]([C@@H]2O[C@H](COP(=O)(O)OP(=O)(O)OC[C@H]3O[C@@H](n4cnc5c(N)ncnc54)[C@H](O)[C@@H]3O)[C@@H](O)[C@H]2O)c1
Put plainly: purified protein. Type of data set: biochemical, Thermotoga maritima. The conditions noted are these: 50-1000 μM NAD+, with 6-phosphogluconate, 80°C, varied: cofactor.

Substrate in data set [2]: NC(=O)c1ccc[n+]([C@@H]2O[C@H](COP(=O)(O)OP(=O)(O)OC[C@H]3O[C@@H](n4cnc5c(N)ncnc54)[C@H](OP(=O)(O)O)[C@@H]3O)[C@@H](O)[C@H]2O)c1
The data set is described as follows: purified protein. Type of data set: biochemical, Thermotoga maritima. The conditions noted are these: 2 mM 6-phosphogluconate, 50 mM Hepes pH 7.5, 5 mM Mg2+, 0.5 mM Mn2+, 80°C, varied: cofactor.

The Km is the concentration of substrate that gives half-maximal velocity.

B1: T. maritima 6PGDH (Thermotoga maritima MSB8) (protein)
chain: MKSHIGLIGLAVMGQNLALNIARKGYKVSVYNRTAQRTEEFVKNRVTNEEIEPHYDIESFVKSLERPRKIILMVKAGKPVDDTISQLLPHLEPGDLIIDGGNSHYMDTERRFKELSEKGILFLGMGVSGGEYGALHGPSLMPGGSREAYNLVEEILLEIAAKTEDGPCCTYVGERSAGHFVKMVHNGIEYAIMQAIAEVYHIMRDVLSLSSEEMSSIFEEWNRGELSSFLVEITYKILRKKDEETGKPMVDVILDKAEQKGTGKWTSQAALDLGIPTPSINLAVVERVISHFKDIRTRLSKLYNKRRSATQGSEEFLRDLRNSLFFAMFMAFSQGMWLIAEASKEFGYGVSLSEVLRIWKGGCIIRAKLIDTLRRYISNENAYLLENEEVMNLLKGKIDSLKNILKASIENEIPVPVLSSSYNYFMSLTEERLPANLIQAQRDFFGAHTFERVDREGVFHINWEEGEIG
notes: full length, expressed in E. coli as CBM-intein-6PGDH fusion, tag removed by intein self-cleavage; 53 kDa
For the protein B1, the Km amounted to 380 µM in data set [1] and 10 µM in data set [2].
